Source: US20190300590A1 (PROTAGONIST THERAPEUTICS, published 2019)
Bridges are numbered along the chain shown (N, C = ends). [ ]: non-standard residue; d: D form. Pen = CC(C)(S)[C@H](N)C(=O)O; hLeu = CC(C)CC[C@H](N)C(=O)O; Aib = CC(C)(N)C(=O)O

T1: IL23R_huFC (human, UniProt Q5VWK5 24-353)
T1 sequence (looked up): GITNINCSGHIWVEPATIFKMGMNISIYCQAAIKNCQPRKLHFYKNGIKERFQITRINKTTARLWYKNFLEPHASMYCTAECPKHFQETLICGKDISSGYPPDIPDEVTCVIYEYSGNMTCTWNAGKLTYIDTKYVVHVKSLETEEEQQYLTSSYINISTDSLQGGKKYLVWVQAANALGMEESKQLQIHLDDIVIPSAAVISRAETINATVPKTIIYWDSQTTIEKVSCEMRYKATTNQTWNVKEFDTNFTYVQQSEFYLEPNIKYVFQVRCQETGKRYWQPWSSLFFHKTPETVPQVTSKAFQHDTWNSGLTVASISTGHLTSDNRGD

T2: Rat IL-23R_huFC (rat, UniProt F1LX96 39-369)
T2 sequence: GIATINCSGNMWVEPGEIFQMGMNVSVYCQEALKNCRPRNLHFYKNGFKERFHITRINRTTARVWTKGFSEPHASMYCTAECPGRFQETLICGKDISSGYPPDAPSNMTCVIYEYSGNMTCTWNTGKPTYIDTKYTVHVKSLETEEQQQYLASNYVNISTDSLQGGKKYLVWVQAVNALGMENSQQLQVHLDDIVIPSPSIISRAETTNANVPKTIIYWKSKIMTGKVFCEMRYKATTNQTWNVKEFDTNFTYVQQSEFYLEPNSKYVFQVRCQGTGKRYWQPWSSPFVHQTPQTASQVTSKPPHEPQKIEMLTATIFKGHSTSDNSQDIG

B1: Ac-[Pen]-QTWQ-[Pen]-YW-[hLeu]-ENG-NH2 (peptide)
peptide: XQTWQXYWLENG
modifications: Ac; Pen-Pen disulfide; hLeu; NH2
B2: Ac-[[Pen]-QTWQ-[Pen]-YW-[hLeu]-ENG-NH2 (peptide)
peptide: XQTWQXYWLENG
modifications: Ac; Pen-Pen disulfide; hLeu; NH2
B3: Ac-[Pen]-QTWQ-[Pen]-YW-[(D)Asn]-ENG-NH2 (peptide)
peptide: Ac-[Pen]QTWQ[Pen]YW[dN]ENG-NH2
modifications: disulfide 1-6
SMILES: CC(=O)N[C@@H]1C(=O)N[C@@H](CCC(N)=O)C(=O)N[C@@H]([C@@H](C)O)C(=O)N[C@@H](Cc2c[nH]c3ccccc23)C(=O)N[C@@H](CCC(N)=O)C(=O)N[C@H](C(=O)N[C@@H](Cc2ccc(O)cc2)C(=O)N[C@@H](Cc2c[nH]c3ccccc23)C(=O)N[C@H](CC(N)=O)C(=O)N[C@@H](CCC(=O)O)C(=O)N[C@@H](CC(N)=O)C(=O)NCC(N)=O)C(C)(C)SSC1(C)C
B4: Ac-CQTWQCYW-[hLeu]-EPG-NH2 (peptide)
peptide: Ac-CQTWQCYW[hLeu]EPG-NH2
modifications: not fully specified (bridges); cysteine pairing not given here
B5: Ac-CTTWQCYW-[Leu]-ENG-NH2 (peptide)
peptide: Ac-CTTWQCYW[hLeu]ENG-NH2
modifications: disulfide 1-6 (inferred)
B6: Ac-CQTWQCYW-[hLeu]-[Lys(Ac)]-NG-NH2 (peptide)
peptide: Ac-CQTWQCYW[hLeu]K(Ac)NG-NH2
modifications: cysteine pairing not given here
B7: Ac-CRTWQCYWLRLGDEG-NH2 (peptide)
peptide: Ac-CRTWQCYWLRLGDEG-NH2
modifications: disulfide 1-6 (inferred)
B8: Ac-CQTWQCYW-[3-Pal]-ENG-NH2 (peptide)
peptide: CQTWQCYWXENG
modifications: Ac; 3-Pal; NH2
B9: Ac-CQTWQCYW-[hLeu]-ENE-NH2 (peptide)
peptide: Ac-CQTWQCYW[hLeu]ENE-NH2
modifications: disulfide 1-6 (inferred)
B10: Ac-CQTWQCYW-[hLeu]-EEG-NH2 (peptide)
peptide: Ac-CQTWQCYW[hLeu]EEG-NH2
modifications: disulfide 1-6 (inferred)
B11: Ac-CSTWECYWHTYG-NH2 (peptide)
peptide: Ac-CSTWECYWHTYG-NH2
modifications: disulfide 1-6
B12: Ac-CRTWQCYWSEFGTGE-NH2 (peptide)
peptide: Ac-CRTWQCYWSEFGTGE-NH2
modifications: disulfide 1-6
SMILES: CC(=O)N[C@H]1CSSC[C@@H](C(=O)N[C@@H](Cc2ccc(O)cc2)C(=O)N[C@@H](Cc2c[nH]c3ccccc23)C(=O)N[C@@H](CO)C(=O)N[C@@H](CCC(=O)O)C(=O)N[C@@H](Cc2ccccc2)C(=O)NCC(=O)N[C@H](C(=O)NCC(=O)N[C@@H](CCC(=O)O)C(N)=O)[C@@H](C)O)NC(=O)[C@H](CCC(N)=O)NC(=O)[C@H](Cc2c[nH]c3ccccc23)NC(=O)[C@H]([C@@H](C)O)NC(=O)[C@H](CCCNC(=N)N)NC1=O
B13: Ac-CQTWQCYW-[Aib]-ENG-NH2 (peptide)
peptide: Ac-CQTWQCYW[Aib]ENG-NH2
modifications: disulfide 1-6 (inferred)
B14: Ac-FCQTWQCYW-[hLeu]-ENG-NH2 (peptide)
peptide: Ac-FCQTWQCYW[hLeu]ENG-NH2
modifications: cysteine pairing not given here
B15: Ac-LCQTWQCYW-[hLeu]-ENG-NH2 (peptide)
peptide: Ac-LCQTWQCYW[hLeu]ENG-NH2
modifications: cysteine pairing not given here
B16: Ac-CQTWQCYW-[α-MeOrn]-ENG-NH2 (peptide)
peptide: CQTWQCYWXENG
modifications: Ac; α-MeOrn; NH2
B17: Ac-CSTWQCYWSKQSGGS-NH2 (peptide)
peptide: Ac-CSTWQCYWSKQSGGS-NH2
modifications: disulfide 1-6
SMILES: CC(=O)N[C@H]1CSSC[C@@H](C(=O)N[C@@H](Cc2ccc(O)cc2)C(=O)N[C@@H](Cc2c[nH]c3ccccc23)C(=O)N[C@@H](CO)C(=O)N[C@@H](CCCCN)C(=O)N[C@@H](CCC(N)=O)C(=O)N[C@@H](CO)C(=O)NCC(=O)NCC(=O)N[C@@H](CO)C(N)=O)NC(=O)[C@H](CCC(N)=O)NC(=O)[C@H](Cc2c[nH]c3ccccc23)NC(=O)[C@H]([C@@H](C)O)NC(=O)[C@H](CO)NC1=O
B18: Ac-CQTWQCYW-[hLeu]-ENGG-NH2 (peptide)
peptide: Ac-CQTWQCYW[hLeu]ENGG-NH2
modifications: cysteine pairing not given here

molecular target: T1, IL23R_huFC; assay: IL23-IL23R competitive binding ELISA

Binder	IC50 [nM]
B1	100 to 1000
B2	100 to 1000
B3	1000 to 10000

molecular target: T2, Rat IL-23R_huFC; assay: rat IL-23R competitive binding ELISA

Binder	IC50 [nM]
B4	140
B5	28
B6	32
B7	483
B8	20
B9	1000
B10	53
B11	286
B12	778
B13	34
B14	25
B15	26
B16	64
B17	204
B18	140
